Reference: patent US20180030137A1 (ADURO BIOTECH HOLDINGS EUROPE B V, published 2018)
Values joined by “and” are separate entries in the source; they are usually repeats but may differ in a detail not shown here. Equal entries are not always repeated.

What was measured:
[1] = biological target: T1, Human PD-1 (Swiss-Prot entry Q15116), full length, on cells (human, UniProt Q15116 21-288); assay: CELISA on CHO-K1.hPDCD1 cells; blocking of biotinylated hPD-L1 Fc
T1 construct: Full length open reading frame of hPD-1 stably expressed on CHO-K1 cells; also endogenous PD-1 on CD3/CD28-stimulated human CD3+ T cells and PD-1 on transfected Jurkat cells; also called hPD-1; hPDCD1
Experimental: (§1) To further characterize these mutant hPD-1 antibodies they were tested for binding to hPD-1 in CELISA format using CHO-K1 cells (American Type Culture Collection, Manassas, Va.), stably transfected with cDNA encoding the full length open reading frame of hPDCD1 (hPD-1), subcloned into the pCI-neo vector (Promega). Parental CHO-K1 or CHO-K1.hPDCD1 cells were seeded in culture medium (DMEM-F12 (Gibco) with 10% Fetal Bovine Serum (Hyclone) and Pen/Strep (Gibco)) in tissue culture plates and incubated for 48 hours at 37° C. Subsequently culture medium was removed and cells were incubated for 1 hour at 37° C. with the mutant hPD-1 antibodies (10 μg/ml (=66 nM) and dilutions thereof). Next, cells were washed with Phosphate-Buffered Saline/0.05% Tween (PBST) and incubated for 1 hour at 37° C. with Goat-anti-human IgG-HRP (Southern Biotech). Subsequently, cells were washed 3 times with PBST and anti-hPD1 immunoreactivity was visualized with 100 al TMB Stabilized Chromagen (Invitrogen). Reactions were stopped with 100 al 0.5 M H2SO4 and absorbances were read at 450 and 610 nm. […] Blockade of hPD-L1 binding by the mutant hPD-1 antibodies was tested in CELISA format. […] Reactions were stopped with 100 al 0.5 M H2SO4 and absorbances were read at 450 and 610 nm. Calculated IC50 values in Table 12 for the blockade of hPD-L1 represent the concentration at which half of the inhibition is observed.

[2] = biological target: T2, hPD-1/Fc fusion protein (R&D Systems) (human, UniProt Q15116 25-167); assay: BLI (Octet RED96), hPD-1/Fc amine-coupled, IgG in solution, 1:1 global fit
T2 construct: Bought reagent; also called Recombinant hPD-1/Fc; not shown: Fc part of the bought fusion protein
Experimental: This assay was, performed by coupling hPD-1/Fc fusion protein (R&D Systems) to amine-reactive second generation biosensors (Fortebio) using standard amine chemistry. […] Amine-reactive biosensors were pre-wet by immersing them in wells containing 0.1M MES pH=5.5 for 10 minutes. The biosensors were then activated using a 0.1M NHS/0.4M EDC mixture for 5 minutes. hPD-1/Fc fusion protein was coupled by immersing the biosensors in a solution of 12 ug/mL hPD-1/Fc in 0.1 M MES for 7.5 minutes. The biosensor surface was quenched using a solution of 1M ethanolamine for 5 minutes. Biosensors were equilibrated in Octet kinetics buffer (ForteBio) for 5 minutes. […] Dissociation was measured after transfer of the biosensors into kinetics buffer and monitoring of the interferometry signal for 45 minutes. The assay was run with a plate temperature of 30° C. The observed on and off rates (kobs and kd) were fit using a 1:1 binding global fit model comprising all concentrations tested, and the equilibrium binding constant KD was calculated.

[3] = biological target: T1, Human PD-1 (Swiss-Prot entry Q15116), …; assay: cell-based or functional assay
[4] = biological target: T1, Human PD-1 (Swiss-Prot entry Q15116), …; assay: CELISA on CHO-K1.hPDCD1 cells; blocking of biotinylated hPD-L1 Fc; remark: listed apart in the source
Experimental: as §1, with “format. Parental CHO-K1 or CHO-K1.hPDCD1 cells were seeded in tissue culture plates and incubated for 72 hours at 37° C. in culture medium. Subsequently culture medium was removed and cells were incubated for 1 hour with the mutant hPD-1 antibodies (10 μg/ml (=66 nM) and dilutions thereof) at 37° C. […] Cells were then washed three times with PBST followed by addition of Streptavidin-HRP conjugate on the cells, which was incubated for 1 hour at 37° C.” for “format.”

[5] = biological target: T1, Human PD-1 (Swiss-Prot entry Q15116), …; assay: CELISA on CHO-K1.hPDCD1 cells; blocking of biotinylated hPD-L2 Fc
Experimental: Parental CHO-K1 or CHO-K1.hPDCD1 cells were seeded in tissue culture plates and incubated for 72 hours at 37° C. in culture medium. […] Cells were then washed three times with PBST followed by addition of Streptavidin-HRP conjugate on the cells, which was incubated for 1 hour at 37° C. […] Reactions were stopped with 100 al 0.5 M H₂SO₄ and absorbances were read at 450 and 610 nm. […] Calculated IC50 values represent the concentration at which half of the inhibition is observed.

[6] = biological target: T1, Human PD-1 (Swiss-Prot entry Q15116), …; assay: flow cytometry, Binding (%), on anti-CD3/anti-CD28 stimulated human CD3+ T cells; donor #1 or #3, same marker in the legend
Experimental: Cells were stored in liquid nitrogen and retrieved from the freezer on the day of the experiment. Since endogenous expression of hPD-1 on resting T cells is low, the thawed CD3+ T cells were stimulated with αCD3/αCD28 coated beads (Gibco) for 48 hours.

T2 sequence (Q15116 25-167 limits assumed): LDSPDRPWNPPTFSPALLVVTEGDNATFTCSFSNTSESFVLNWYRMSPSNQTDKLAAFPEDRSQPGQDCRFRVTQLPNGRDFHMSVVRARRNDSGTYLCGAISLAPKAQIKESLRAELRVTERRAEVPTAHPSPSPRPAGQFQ
T1 sequence (Q15116 21-288, one chain of several): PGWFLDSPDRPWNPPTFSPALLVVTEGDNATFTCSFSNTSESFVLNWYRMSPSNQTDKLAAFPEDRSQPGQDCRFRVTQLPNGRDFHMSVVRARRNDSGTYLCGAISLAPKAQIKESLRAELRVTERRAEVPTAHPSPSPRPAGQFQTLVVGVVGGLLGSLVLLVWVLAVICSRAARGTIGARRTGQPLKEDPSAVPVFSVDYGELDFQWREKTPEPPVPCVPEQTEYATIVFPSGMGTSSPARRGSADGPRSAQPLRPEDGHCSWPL

IC50 [1]: 0.7 nM
Kd [2]: 0.011 nM
koff [2]: 9.2e-06 s⁻¹
kon [2]: 860000 M⁻¹ s⁻¹
IC50; NFAT-luciferase signal (RLU) of Jurkat cells expressing human PD-1, with CHO cells expressing hPD-L1 [3]: 4.39 nM
IC50 [4]: 1.3 nM
IC50 [5]: 0.61 nM
EC50 (read off the curve) [6]: ~0.2 nM and ~0.3 nM
B1: hPD1.29H5L4 (antibody, V domains shown)
VH: EVQLVQSGAEVKKPGASVKVSCKASGYIFTTYYIHWVKQAPGKGLEWIGWIFPGDVSTQYNEKFQDKATITVDKSASTAYMQLSSLRSEDTAVYYCTREAYDYAVYWGQGTLVTVSS
VL: DIQMTQAPSSLSASVGDRVTITCKASQNVDTNVAWFQQKPGKAPKSLIFSASYRYSGVPSRFSGSGSGTDFTLTISSLQPEDFATYYCQQYNNYPFTFGGGTKLEIK
notes: Expressed as human IgG4, kappa with the stabilizing S241P (Kabat) hinge mutation in HEK293 cells; also called humanized PD-1 antibody hPD1.29H5L4
